According to patent publication EP1160320A1 (INSTITUT NATIONAL DE LA SANTE ET DE LA RECHERCHE MEDICALE …, dated 2001):

Target: T1, hTAFII80δ (human, UniProt P49848 1-677)
T1 construct: Endogenous protein immunoprecipitated from HeLa extracts; also called hTAFII80 delta; δ isoform of hTAFII80
Experiment: co-immunoprecipitation of endogenous hTAFII80δ complexes from HeLa cells, immunoblot

T1 sequence (P49848 other isoform, or with tags, fused parts or gaps mutant limits assumed): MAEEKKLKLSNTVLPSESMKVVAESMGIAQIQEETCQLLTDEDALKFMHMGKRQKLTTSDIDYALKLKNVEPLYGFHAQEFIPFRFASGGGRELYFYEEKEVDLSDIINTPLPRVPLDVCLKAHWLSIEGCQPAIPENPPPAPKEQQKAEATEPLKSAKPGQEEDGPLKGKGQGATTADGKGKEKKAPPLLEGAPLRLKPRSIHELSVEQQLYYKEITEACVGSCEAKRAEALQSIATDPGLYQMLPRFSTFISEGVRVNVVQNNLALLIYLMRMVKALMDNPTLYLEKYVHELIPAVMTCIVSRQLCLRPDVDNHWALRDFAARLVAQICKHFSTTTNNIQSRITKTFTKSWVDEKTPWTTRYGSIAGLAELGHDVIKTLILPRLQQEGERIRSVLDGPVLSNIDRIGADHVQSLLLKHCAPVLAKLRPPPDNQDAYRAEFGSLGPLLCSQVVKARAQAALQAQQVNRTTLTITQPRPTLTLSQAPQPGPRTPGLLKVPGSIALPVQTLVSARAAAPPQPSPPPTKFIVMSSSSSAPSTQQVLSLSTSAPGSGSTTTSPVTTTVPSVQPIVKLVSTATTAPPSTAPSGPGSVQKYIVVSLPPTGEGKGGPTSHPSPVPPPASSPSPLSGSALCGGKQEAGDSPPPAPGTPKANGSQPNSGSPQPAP

B1: hTAFII31 (other, human, UniProt Q16594 1-264, looked up)
chain: MESGKTASPKSMPKDAQMMAQILKDMGITEYEPRVINQMLEFAFRYVTTILDDAKIYSSHAKKATVDADDVRLAIQCRADQSFTSPPPRDFLLDIARQRNQTPLPLIKPYSGPRLPPDRYCLTAPNYRLKSLQKKASTSAGRITVPRLSVGSVTSRPSTPTLGTPTPQTMSVSTKVGTPMSLTGQRFTVQMPTSQSPAVKASIPATSAVQNVLINPSLIGSKNILITTNMMSSQNTANESSNALKRKREDDDDDDDDDDDYDNL
notes: Baculovirus-produced in SF9 extracts for the pull-down; endogenous in HeLa cells for the co-immunoprecipitation; No tag is stated; also called recombinant hTAFII31; histone H3-like hTAFII31
  binding result: no binding
